From patent publication US20200157212A1 (Pfizer, published 2020)

Assays:
[1] = target: T1, Human ROBO1 RSK mutant overexpressed on HEK293 cells (human, UniProt Q9Y6N7 26-1651); experiment: flow cytometry, Geo MFI ROBO1-RSK/ROBO2-KSR HEK293 cells, 0.1 µg/ml
T1 construct: K137R and R139K already in the entry; also called ROBO1-RSK cells

[2] = target: T2, Human ROBO2 KSR mutant overexpressed on HEK293 cells (human, UniProt Q9HCK4 22-1378); experiment: mutagenesis study
T2 construct: R100K and K102R already in the entry
T2 sequence: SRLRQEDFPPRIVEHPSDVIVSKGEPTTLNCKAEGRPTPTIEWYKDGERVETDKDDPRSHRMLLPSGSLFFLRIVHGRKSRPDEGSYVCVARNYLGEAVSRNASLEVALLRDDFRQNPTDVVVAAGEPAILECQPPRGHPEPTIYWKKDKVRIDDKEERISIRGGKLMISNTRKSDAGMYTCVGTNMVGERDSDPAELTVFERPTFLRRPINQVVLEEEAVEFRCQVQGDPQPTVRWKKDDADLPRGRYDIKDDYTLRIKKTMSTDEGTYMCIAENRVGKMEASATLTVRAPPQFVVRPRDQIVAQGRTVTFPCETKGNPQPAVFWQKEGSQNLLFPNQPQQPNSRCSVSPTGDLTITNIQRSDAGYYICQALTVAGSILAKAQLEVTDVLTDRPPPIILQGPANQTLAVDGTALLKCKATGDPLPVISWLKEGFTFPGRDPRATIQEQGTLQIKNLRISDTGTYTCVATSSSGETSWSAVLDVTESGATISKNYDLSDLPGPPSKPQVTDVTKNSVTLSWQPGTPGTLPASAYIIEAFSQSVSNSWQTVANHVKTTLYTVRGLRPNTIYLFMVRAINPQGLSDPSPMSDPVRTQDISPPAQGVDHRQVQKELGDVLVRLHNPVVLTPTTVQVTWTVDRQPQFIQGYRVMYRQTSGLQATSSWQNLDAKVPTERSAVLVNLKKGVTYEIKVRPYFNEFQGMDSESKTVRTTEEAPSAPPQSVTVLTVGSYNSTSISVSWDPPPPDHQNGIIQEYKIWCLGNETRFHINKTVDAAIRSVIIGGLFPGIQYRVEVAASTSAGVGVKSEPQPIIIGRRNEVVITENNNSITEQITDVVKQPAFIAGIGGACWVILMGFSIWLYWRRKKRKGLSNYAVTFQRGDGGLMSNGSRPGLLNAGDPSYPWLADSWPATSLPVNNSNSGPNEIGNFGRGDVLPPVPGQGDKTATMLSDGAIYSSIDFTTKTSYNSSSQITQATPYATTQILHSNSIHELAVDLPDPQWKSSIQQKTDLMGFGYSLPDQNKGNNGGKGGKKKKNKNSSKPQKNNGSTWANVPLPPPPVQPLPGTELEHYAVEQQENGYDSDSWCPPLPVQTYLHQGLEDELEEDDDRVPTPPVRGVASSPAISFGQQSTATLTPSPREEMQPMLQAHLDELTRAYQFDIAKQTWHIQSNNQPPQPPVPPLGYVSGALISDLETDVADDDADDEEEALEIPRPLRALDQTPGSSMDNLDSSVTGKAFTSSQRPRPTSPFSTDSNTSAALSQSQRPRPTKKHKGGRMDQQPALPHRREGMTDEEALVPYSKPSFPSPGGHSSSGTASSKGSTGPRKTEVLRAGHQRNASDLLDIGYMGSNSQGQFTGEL

Human ROBO2 Ig1-Ig2-His [3] = target: T3, Human ROBO2 Ig1-Ig2-His (human, UniProt Q9HCK4 31-220); experiment: Octet and SPR, against the parental antibody
T3 construct: the His tag is named only in the SPR paragraphs; the Octet and ELISA paragraphs print 'ROBO2 Ig1-Ig2' without a tag; also called ROBO2 Ig1-2; Human ROBO2 Ig 1,2
T3 sequence: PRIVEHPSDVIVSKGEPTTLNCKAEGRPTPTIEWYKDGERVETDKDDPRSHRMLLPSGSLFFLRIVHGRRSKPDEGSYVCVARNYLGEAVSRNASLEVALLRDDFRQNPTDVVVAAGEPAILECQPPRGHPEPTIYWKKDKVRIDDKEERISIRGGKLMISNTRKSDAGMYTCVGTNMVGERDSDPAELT

Human ROBO2 Ig1-Ig2-His [4] = target: T3, Human ROBO2 Ig1-Ig2-His; experiment: SPR, Biacore T200, Abcs35 immobilized on CM5 chip, ROBO2 Ig1-Ig2-His as analyte
Description: (§1) […] Association and dissociation were followed over time.
(§2) Based upon several criteria, Abcs25 and Abcs35 were selected for further characterization. Using flow cytometry, improvement in the binding EC₅₀ to human ROBO2 relative to the parental 93H2 was evaluated. Starting at 6.7 nM, 11-point, 3-fold dilution series were made for each antibody and used to stain HEK293 overexpressing human ROBO2 as described above for the ROBO2 fold selectivity (Example 2). […] In addition to measuring improved binding to human ROBO2, it was important to ensure that high affinity binding to both cynomolgus monkey ROBO2 and rat ROBO2 was maintained. Using HEK293 cells overexpressing either cynomolgus monkey ROBO2 or rat ROBO2, the relative dose-dependent binding of 93H2, Abcs25 and Abcs35 was evaluated as described above. High affinity binding to both cynomolgus monkey and rat ROBO2 was maintained in Abcs25 and Abcs35 (Table 4). […] Briefly, Abcs35 was immobilized to 300 resonance units (RU) on a CM5 chip. Association of ROBO2 Ig1-Ig2-His (ROBO2) was measured over 5 minutes and dissociation was followed for a period of 10 minutes.

Human ROBO2 Ig1-Ig2-His [5] = target: T3, Human ROBO2 Ig1-Ig2-His; experiment: SPR (Biacore T200), Abcs35 immobilized on a CM5 chip, ROBO2 Ig1-Ig2-His as analyte; column head kdis(1/s)
Description: as §1, §2

T1 sequence (Q9Y6N7 other isoform, or with tags, fused parts or gaps mutant limits assumed): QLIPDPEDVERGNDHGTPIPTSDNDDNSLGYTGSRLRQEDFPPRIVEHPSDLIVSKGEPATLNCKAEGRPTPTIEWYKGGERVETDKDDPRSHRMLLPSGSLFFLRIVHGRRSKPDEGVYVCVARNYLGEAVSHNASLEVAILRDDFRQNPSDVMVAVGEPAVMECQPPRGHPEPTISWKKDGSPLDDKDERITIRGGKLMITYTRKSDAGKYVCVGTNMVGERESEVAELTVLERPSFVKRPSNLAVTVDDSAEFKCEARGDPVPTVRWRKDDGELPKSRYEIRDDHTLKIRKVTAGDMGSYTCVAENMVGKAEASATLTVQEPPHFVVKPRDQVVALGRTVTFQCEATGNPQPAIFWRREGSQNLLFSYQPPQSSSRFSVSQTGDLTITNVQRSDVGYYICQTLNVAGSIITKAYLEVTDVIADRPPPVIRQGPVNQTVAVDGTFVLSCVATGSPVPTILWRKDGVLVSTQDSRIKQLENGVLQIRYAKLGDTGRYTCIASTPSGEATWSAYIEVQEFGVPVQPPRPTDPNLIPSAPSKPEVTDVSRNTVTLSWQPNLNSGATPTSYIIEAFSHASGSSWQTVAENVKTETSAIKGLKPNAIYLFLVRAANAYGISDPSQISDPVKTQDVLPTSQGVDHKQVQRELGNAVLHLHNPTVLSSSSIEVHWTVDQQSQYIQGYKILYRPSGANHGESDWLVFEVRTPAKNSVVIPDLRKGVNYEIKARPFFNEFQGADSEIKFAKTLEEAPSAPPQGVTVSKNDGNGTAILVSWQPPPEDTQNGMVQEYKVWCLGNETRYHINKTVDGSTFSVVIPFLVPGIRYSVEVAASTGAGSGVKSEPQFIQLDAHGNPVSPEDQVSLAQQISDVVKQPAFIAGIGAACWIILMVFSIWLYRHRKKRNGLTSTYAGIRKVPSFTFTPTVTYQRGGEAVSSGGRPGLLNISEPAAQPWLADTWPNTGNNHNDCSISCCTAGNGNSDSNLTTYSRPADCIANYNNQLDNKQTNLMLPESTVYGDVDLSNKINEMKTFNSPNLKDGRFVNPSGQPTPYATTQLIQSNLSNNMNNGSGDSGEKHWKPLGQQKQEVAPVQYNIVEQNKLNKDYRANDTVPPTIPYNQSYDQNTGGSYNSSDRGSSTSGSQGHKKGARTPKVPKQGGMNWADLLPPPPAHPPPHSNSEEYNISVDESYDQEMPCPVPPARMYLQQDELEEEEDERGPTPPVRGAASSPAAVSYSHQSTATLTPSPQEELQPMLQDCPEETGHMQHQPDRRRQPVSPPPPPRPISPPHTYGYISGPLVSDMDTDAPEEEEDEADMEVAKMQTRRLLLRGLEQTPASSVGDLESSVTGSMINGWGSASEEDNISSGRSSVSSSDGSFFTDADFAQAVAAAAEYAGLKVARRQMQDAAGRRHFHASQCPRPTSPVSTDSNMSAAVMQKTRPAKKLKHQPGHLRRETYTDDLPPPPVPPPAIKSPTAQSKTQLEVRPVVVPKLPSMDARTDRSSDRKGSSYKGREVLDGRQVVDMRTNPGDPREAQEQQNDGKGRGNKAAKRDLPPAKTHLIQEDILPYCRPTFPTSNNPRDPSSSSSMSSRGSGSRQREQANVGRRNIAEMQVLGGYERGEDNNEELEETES

Fold Selectivity for RSK/KSR [1] | Binder | binding result [2] | fold affinity improvement (Human ROBO2 Ig1-Ig2-His [3]) | Kd (Human ROBO2 Ig1-Ig2-His [4]) | koff (Human ROBO2 Ig1-Ig2-His [5])
> 100 fold | 93H2 (antibody, human IgG1, kappa, V domains shown, also called parental 93H2; 93H2 mAb) VH: EVQLVQSGAEVKKPGASVKVSCKASGYTFTGYYMHWVRQAPGQGLEWMGWINPNSGATNFPQKFQGRVTMTRDTSITTAYMDLSRLRSDDTAVYYCARESGDDAFDIWGQGTMVTVSS VL: not shown | no binding |  |  | 
 | Abcs35 (antibody, human IgG1, kappa, fully human IgG1; VH of Ab96 with VL of Ab123) heavy: EVQLVQSGAEVKKPGASVKVSCKASGYTFTGYYMHWVRQAPGQGLEWMGWINPKNGDTEFPQKFQGRVTMTRDTSITTAYMDLSRLRSDDTAVYYCARESGDDAFDIWGQGTMVTVSSASTKGPSVFPLAPSSKSTSGGTAALGCLVKDYFPEPVTVSWNSGALTSGVHTFPAVLQSSGLYSLSSVVTVPSSSLGTQTYICNVNHKPSNTKVDKKVEPKSCDKTHTCPPCPAPEAAGAPSVFLFPPKPKDTLMISRTPEVTCVVVDVSHEDPEVKFNWYVDGVEVHNAKTKPREEQYNSTYRVVSVLTVLHQDWLNGKEYKCKVSNKALPAPIEKTISKAKGQPREPQVYTLPPSREEMTKNQVSLTCLVKGFYPSDIAVEWESNGQPENNYKTTPPVLDSDGSFFLYSKLTVDKSRWQQGNVFSCSVMHEALHNHYTQKSLSLSPGK light: DIVMTQSPSSLSASVGDRVTITCRASQSISSYLNWYQQKPGKAPKLLIYAASSLQSGVPSRFSGSGSGTDFTLTISSLQPEDFATYYCQQSVGLFFGGGTKVEIKRTVAAPSVFIFPPSDEQLKSGTASVVCLLNNFYPREAKVQWKVDNALQSGNSQESVTEQDSKDSTYSLSSTLTLSKADYEKHKVYACEVTHQGLSSPVTKSFNRGEC |  | ~300 fold | 0.268 nM | 0.00793 s⁻¹
